B1: TPR t1 (parent)
chain: GACCAAUCUGCCCUCAGAGCUCGAGAACAUCUUCGGAUGCAGAGGAGGCAGGCUUCGGUGGCGCGAUAGCGCCAACGUCCUCAACCUCCAAUGCAUCCCACCACAUGAUGAUGCCUGAAGAGCCUUGGUUUUUUG

Variants of: B1
Test: polymerase ribozyme fitness, log enrichment relative to wild type (log ratio); higher = more active; in vitro selection for triplet polymerase activity
Outline: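 Mutant libraries of both subunits of a heterodimeric triplet polymerase ribozyme were PCR-built, transcribed, and selected once in triplicate, with frozen incubation at −7 °C and capture of gel-excised extended constructs on streptavidin beads before RT-PCR. Illumina sequencing of input and output libraries was filtered to genotypes with ≥10 input reads and ≥1 read per output. Fitness is the logarithm of genotype enrichment over wild-type enrichment, using inverse-variance-weighted replicate averages. The logarithm is base 2.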

Going from C70U C97U U106A G127U to C72A C82G A91C G93C, the “polymerase ribozyme fitness (log ratio)” value falls from -1.69 to -3.15.

First: C70G U78C C114U
Second: G69U C73G A105U
The “polymerase ribozyme fitness (log ratio)” value of the first is lower: -5.32 for the first, -4.07 for the second.

C70U U81G A84C G122A and G71C C97U G117C are within 0.2 log units of each other in “polymerase ribozyme fitness (log ratio)” value: -5.65 for the first, -5.75 for the second.

Going from G69U C89G U106A G120C G122C to G69U C104G U133G, the “polymerase ribozyme fitness (log ratio)” value falls from -1.79 to -5.17.

First: C70A C123A
Second: C70A G113U
The “polymerase ribozyme fitness (log ratio)” value of the first is higher: -0.557 for the first, -2.82 for the second.

First: C70A G113A
Second: G69U G107A
The “polymerase ribozyme fitness (log ratio)” value of the first is higher: -2.41 for the first, -3.34 for the second.

Compared with C72A C114A G122A, C70G G113U is lower in “polymerase ribozyme fitness (log ratio)” value: -2.11 for the first, -4.42 for the second.

First: G71U A74U A95U U112G
Second: G71C U81G C97U U106A G120A
The “polymerase ribozyme fitness (log ratio)” value of the first is higher: -3.05 for the first, -3.76 for the second.

Compared with C70G C85A C123U U130A U133C, G69U C85G C99U A100C G110A is lower in “polymerase ribozyme fitness (log ratio)” value: -3.14 for the first, -5.56 for the second.

Compared with C70U C72G C115U G117A, C70G C123G is higher in “polymerase ribozyme fitness (log ratio)” value: -5.53 for the first, -0.392 for the second.

Compared with C70A U130C, C72U A83U is higher in “polymerase ribozyme fitness (log ratio)” value: -2.15 for the first, -1.1 for the second.

Compared with G71C C85U U92C, C72A A108U is lower in “polymerase ribozyme fitness (log ratio)” value: -4.52 for the first, -5.64 for the second.

Going from G71C U133A to C72A G107A C124G, the “polymerase ribozyme fitness (log ratio)” value falls from -0.636 to -5.06.

Going from G71C U112C to C70U G117C, the “polymerase ribozyme fitness (log ratio)” value falls from -0.487 to -4.24.

First: G69U C88U
Second: G71A A83G U133G
The “polymerase ribozyme fitness (log ratio)” value of the first is higher: -0.366 for the first, -2.31 for the second.

First: C70A C80G C82G
Second: G71C C124U
The “polymerase ribozyme fitness (log ratio)” value of the first is lower: -7.42 for the first, 0.16 for the second.

Going from C72G U96A to C72G U96C, the “polymerase ribozyme fitness (log ratio)” value rises from -2.18 to -1.25.

Going from G69U U78G C102U to C72A G93A, the “polymerase ribozyme fitness (log ratio)” value falls from -0.192 to -0.667.

First: G71A C115A C123U
Second: C72G A108G G120A C124G U131G
The “polymerase ribozyme fitness (log ratio)” value of the first is lower: -2.76 for the first, -1.26 for the second.

Compared with C70G U106A, C72G G93A C101A A111U is lower in “polymerase ribozyme fitness (log ratio)” value: -2.52 for the first, -4.69 for the second.

Compared with C70U A118U C123A U130C, G71A C102A is lower in “polymerase ribozyme fitness (log ratio)” value: -0.647 for the first, -2.99 for the second.

Compared with C72A A90U C101A G122A, G71C G117U is higher in “polymerase ribozyme fitness (log ratio)” value: -3.86 for the first, -3.08 for the second.

Going from C70U G128U U133G to G71A A91C C114U U133C, the “polymerase ribozyme fitness (log ratio)” value rises from -2.39 to -2.15.

First: C72G G122A
Second: G69U U78A A83C C102G
The “polymerase ribozyme fitness (log ratio)” value of the first is higher: -1 for the first, -3.71 for the second.

First: G71A A83G
Second: C72A C123G
The “polymerase ribozyme fitness (log ratio)” value of the first is lower: -1.61 for the first, 1.56 for the second.

C72A C115A and G71U U96C are within 0.2 log units of each other in “polymerase ribozyme fitness (log ratio)” value: -0.416 for the first, -0.38 for the second.

Compared with G71U A83U, G71U U81G is lower in “polymerase ribozyme fitness (log ratio)” value: -0.358 for the first, -4.34 for the second.

First: C72A U112C
Second: G71U G93A C104U
The “polymerase ribozyme fitness (log ratio)” value of the first is higher: 1.48 for the first, -0.466 for the second.

First: C70A C124U U133C
Second: C72A G117U
The “polymerase ribozyme fitness (log ratio)” value of the first is higher: 0.767 for the first, -2.32 for the second.

Compared with C72A G117C, C70U C73A C102U A118U is higher in “polymerase ribozyme fitness (log ratio)” value: -4.09 for the first, -2.08 for the second.

First: C72U A91C G127A
Second: G71C G113A G128A
The “polymerase ribozyme fitness (log ratio)” value of the first is higher: -2.46 for the first, -3.16 for the second.

First: G71U A84G U126C U133A
Second: G71A C94U U96A
The “polymerase ribozyme fitness (log ratio)” value of the first is lower: -2.74 for the first, -2.05 for the second.

Going from C70U C98U to G71U U130A, the “polymerase ribozyme fitness (log ratio)” value rises from -1.16 to 0.232.

Going from C70G C98U to G69U C82A C104U, the “polymerase ribozyme fitness (log ratio)” value rises from -2.99 to 0.152.

Going from G71A A84C to G71C U87A C123A, the “polymerase ribozyme fitness (log ratio)” value falls from -0.48 to -2.66.

Compared with G71U C73G A95C C124U G128U U129C, C72A A75C U87G C102A U116A C124U U130A is higher in “polymerase ribozyme fitness (log ratio)” value: -7.5 for the first, -5.54 for the second.

Going from G71A G120C G122A to C70G U130G, the “polymerase ribozyme fitness (log ratio)” value falls from -1.43 to -4.08.

Going from G69U U81A to C70G U78A, the “polymerase ribozyme fitness (log ratio)” value falls from 0.151 to -2.44.

Compared with C72A C82G C115A C123A, C70U C104G is lower in “polymerase ribozyme fitness (log ratio)” value: -1.36 for the first, -7.05 for the second.

First: C70A A84U U87A
Second: G69U U116A
The “polymerase ribozyme fitness (log ratio)” value of the first is lower: -2.24 for the first, -1.65 for the second.

Going from G71C C73U C79G A90U to C70U C102U U132A, the “polymerase ribozyme fitness (log ratio)” value rises from -6.83 to -2.52.

Compared with C72A C82A C97G C114G, C70G U78C G120A U130G is higher in “polymerase ribozyme fitness (log ratio)” value: -5.93 for the first, -2.19 for the second.
